Test [1] concerns the target T1, L428V mutant of human pregnane X receptor ligand binding domain (residues 130-434) (human, UniProt O75469 130-434, L428V).
T1 construct: As m1, one polypeptide with the SRC-1 peptide: His6 - PXR 130-434 (L428V) - SGGSGG linker - SRC-1 678-710; also called PXR^L428V LBD; source: E. coli BL21(DE3), purified (HisTrap, HiTrap SP flow-through, Superdex 200 SEC)
T1 sequence (looked up): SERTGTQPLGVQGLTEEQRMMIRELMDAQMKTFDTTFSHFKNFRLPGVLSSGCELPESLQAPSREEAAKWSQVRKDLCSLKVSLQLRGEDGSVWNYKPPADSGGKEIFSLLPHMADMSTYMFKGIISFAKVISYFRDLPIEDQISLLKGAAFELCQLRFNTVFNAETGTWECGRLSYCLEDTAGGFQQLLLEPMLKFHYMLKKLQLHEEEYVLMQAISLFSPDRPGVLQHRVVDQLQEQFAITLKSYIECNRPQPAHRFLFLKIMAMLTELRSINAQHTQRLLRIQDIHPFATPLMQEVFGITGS
Description: crystal structure; PXR L428V LBD tethered to the SRC-1 peptide on one chain, apo and with the antagonist SJPYT-331; 50 mM Bis-Tris pH 6-7, 10-20% MPD, 20 °C. The settings on record: both partners purified.

Test [2] has as its target T2, human pregnane X receptor ligand binding domain (residues 130-434) (human, UniProt O75469 130-434).
T2 construct: In the crystallised construct this domain and the SRC-1 peptide are one polypeptide: His6 - PXR 130-434 - SGGSGG linker - SRC-1 678-710; Written here as a molecule of its own for the pair PXR LBD / SRC-1; also called PXR LBD; WT PXR LBD; source: E. coli BL21(DE3), purified (HisTrap, HiTrap SP flow-through, Superdex 200 SEC)
T2 sequence (looked up): T1 sequence (looked up) with V299L
The test is described as follows: crystal structure; PXR LBD tethered to the SRC-1 peptide on one chain, co-crystallised with an antagonist (SJPYT-310, SJPYT-278, SJPYT-312 or SJPYT-331; 2:1 ligand to protein); 50 mM Bis-Tris pH 6-7, 10-20% MPD, 20 °C. As to conditions: both partners purified.

Where a chain is given by its changes, count along the chain named.

B1: SRC-1 peptide (residues 678-710), 33 amino acids (peptide, UniProt Q15788 678-710, looked up)
chain: SSHSSLTERHKILHRLLQEGSPSDITTLSVEPD
notes: Not a free peptide: tethered to the C-terminus of PXR LBD (m1 or m3) through an SGGSGG linker on one chain; also called tethered SRC-1 peptide
Turning to B1, the binding result in test [1] and in test [2] was “binds” each time.

The values are drawn from paper PMC11094003, “Chemical manipulation of an activation/inhibition switch in the nuclear receptor PXR” (Nature Communications, 2024).
